Experimental findings from publication PMC7055227, “Complete Profiling of Methyl-CpG-Binding Domains for Combinations of Cytosine Modifications at CpG Dinucleotides Reveals Differential Read-out in Normal and Rett-Associated States” are described below.

What is called Kd is the equilibrium constant for the complex coming apart.

Data set [1] addresses T1, hMBD4 MBD (Homo sapiens, UniProt O95243). Description: EMSA; lower than mC/fC; EMSA: 20 mM HEPES pH 7.3, 30 mM KCl, 1 mM EDTA, 10 mM (NH4)2SO4, 1 mM DTT, 0.2% Tween 20, 50 ng/uL poly(dA)-poly(dT), protein diluted in dialysis buffer with 0.1 mg/mL BSA; 2 nM duplex; 20 min at room temperature; gel at 4 C. The conditions noted are these: protein: recombinant; tags: N-term SpA(Z)-Factor Xa-TEV, C-term 8xHis; label: 5' 6-FAM on strand 1; blunt.

Data set [2] addresses hMeCP2 MBD (Homo sapiens, UniProt P51608 90-181). Kind of data set: EMSA; 20 mM HEPES, 30 mM KCl, 1 mM EDTA, 10 mM (NH4)2SO4, pH 7.3, 1 mM DTT, 0.2% Tween 20, 50 ng/uL poly(dA)-poly(dT) trap, 2 nM duplex, protein in dialysis buffer with BSA; 20 min room temperature; gel at 4 C. The conditions noted are these: protein: recombinant, label: 5' 6-FAM on strand 1.
The target of data set [3] is T1, hMBD4 MBD. Description: EMSA; higher than mC/hmC; EMSA: 20 mM HEPES pH 7.3, 30 mM KCl, 1 mM EDTA, 10 mM (NH4)2SO4, 1 mM DTT, 0.2% Tween 20, 50 ng/uL poly(dA)-poly(dT), protein diluted in dialysis buffer with 0.1 mg/mL BSA; 2 nM duplex; 20 min at room temperature; gel at 4 C. The conditions noted are these: protein: recombinant; tags: N-term SpA(Z)-Factor Xa-TEV, C-term 8xHis; label: 5' 6-FAM on strand 1; blunt. In general terms: In EMSA bound probe runs differently from free probe, usually more slowly.

The target in data set [4] is T1, hMBD4 MBD. Kind of data set: EMSA; new preferred combination; EMSA: 20 mM HEPES pH 7.3, 30 mM KCl, 1 mM EDTA, 10 mM (NH4)2SO4, 1 mM DTT, 0.2% Tween 20, 50 ng/uL poly(dA)-poly(dT), protein diluted in dialysis buffer with 0.1 mg/mL BSA; 2 nM duplex; 20 min at room temperature; gel at 4 C. The settings on record: protein: recombinant; tags: N-term SpA(Z)-Factor Xa-TEV, C-term 8xHis; label: 5' 6-FAM on strand 1; blunt.

Data set [5] concerns the target hMeCP2 MBD (Homo sapiens, UniProt P51608). Kind of data set: EMSA; poly(dA)-poly(dT) 50 ng/uL; EMSA: 20 mM HEPES pH 7.3, 30 mM KCl, 1 mM EDTA, 10 mM (NH4)2SO4, 1 mM DTT, 0.2% Tween 20, 50 ng/uL poly(dA)-poly(dT), protein diluted in dialysis buffer with 0.1 mg/mL BSA; 2 nM duplex; 20 min at room temperature; gel at 4 C. The settings on record: protein: recombinant; tags: N-term SpA(Z)-Factor Xa-TEV, C-term 8xHis; label: 5' 6-FAM on strand 1; blunt.

T1 sequence (O95243 76-167): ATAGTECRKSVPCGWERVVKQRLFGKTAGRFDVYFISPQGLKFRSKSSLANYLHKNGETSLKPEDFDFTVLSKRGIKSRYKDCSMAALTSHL
hMeCP2 MBD (Homo sapiens, UniProt P51608 90-181), sequence (P51608 90-181): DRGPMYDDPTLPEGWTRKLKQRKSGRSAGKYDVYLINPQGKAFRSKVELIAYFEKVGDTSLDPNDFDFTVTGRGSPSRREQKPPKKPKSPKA
hMeCP2 MBD (Homo sapiens, UniProt P51608), sequence (P51608 90-181): as above

B1: mC/hmC duplex (dsDNA)
DNA 1: AAAAAAAAAAACGAAAAAAAAAAA
DNA 2: TTTTTTTTTTTCGTTTTTTTTTTT
modifications: 5-methylcytosine at C12 of one strand, 5-hydroxymethylcytosine at C12 of the other; strand assignment not certain
Consider B1, for which, in the data set with hMBD4 MBD [1], the binding result is recorded as “binds”.

B2: p06 mC/mC duplex (dsDNA)
DNA 1: AAAAAAAAAAACGAAAAAAAAAAA
DNA 2: TTTTTTTTTTTCGTTTTTTTTTTT
modifications: 5-methylcytosine at C12 of strand 1 and C12 of strand 2 (o2967/o2909)
Take B2: in the data set with hMeCP2 MBD [2] (blunt), the Kd stood at 0.0266 ± 0.00385 µM.

B3: p10 hmC/hmC duplex (dsDNA)
DNA 1: AAAAAAAAAAACGAAAAAAAAAAA
DNA 2: TTTTTTTTTTTCGTTTTTTTTTTT
modifications: 5-hydroxymethylcytosine at C12 of strand 1 and C12 of strand 2 (o3115/o3112)
Regarding B3, in the data set with hMeCP2 MBD [2], the Kd came out at 0.967 ± 0.0896 µM.

B4: mC/fC duplex (dsDNA)
DNA 1: AAAAAAAAAAACGAAAAAAAAAAA
DNA 2: TTTTTTTTTTTCGTTTTTTTTTTT
modifications: 5-methylcytosine at C12 of one strand, 5-formylcytosine at C12 of the other; strand assignment not certain
For B4, the binding result with hMBD4 MBD [3] is listed as “binds”.

B5: p08 fC/mC duplex (dsDNA)
DNA 1: AAAAAAAAAAACGAAAAAAAAAAA
DNA 2: TTTTTTTTTTTCGTTTTTTTTTTT
modifications: 5-formylcytosine at C12 of strand 1; 5-methylcytosine at C12 of strand 2 (o3116/o2909)
For the molecule B5, in the data set with hMeCP2 MBD [2] (blunt), the Kd was 0.197 ± 0.024 µM.

B6: p07 hmC/mC duplex (dsDNA)
DNA 1: AAAAAAAAAAACGAAAAAAAAAAA
DNA 2: TTTTTTTTTTTCGTTTTTTTTTTT
modifications: 5-hydroxymethylcytosine at C12 of strand 1; 5-methylcytosine at C12 of strand 2 (o3115/o2909)
For B6, in the data set with hMeCP2 MBD [2] (blunt), the Kd came out at 0.224 ± 0.0246 µM.

B7: p03 hmC/C duplex (dsDNA)
DNA 1: AAAAAAAAAAACGAAAAAAAAAAA
DNA 2: TTTTTTTTTTTCGTTTTTTTTTTT
modifications: 5-hydroxymethylcytosine at C12 of strand 1; strand 2 unmodified (o3115/o2904)
On to B7, for which the Kd with hMeCP2 MBD [2] (blunt) was determined as 1.08 ± 0.101 µM.

B8: hmC/fC duplex (dsDNA)
DNA 1: AAAAAAAAAAACGAAAAAAAAAAA
DNA 2: TTTTTTTTTTTCGTTTTTTTTTTT
modifications: 5-hydroxymethylcytosine at C12 of one strand, 5-formylcytosine at C12 of the other; strand assignment not certain
B8: the binding result in the data set with hMBD4 MBD [4] is on record as “binds”.

B9: probe p03 (dsDNA)
DNA 1: AAAAAAAAAAACGAAAAAAAAAAA
DNA 2: TTTTTTTTTTTCGTTTTTTTTTTT
modifications: cytosine states of p03 not given in the material (perhaps C/C)
With B9, the Kd with hMeCP2 MBD [5] was 1.08 ± 0.101 µM.

B10: p11 fC/hmC duplex (dsDNA)
DNA 1: AAAAAAAAAAACGAAAAAAAAAAA
DNA 2: TTTTTTTTTTTCGTTTTTTTTTTT
modifications: 5-formylcytosine at C12 of strand 1; 5-hydroxymethylcytosine at C12 of strand 2 (o3116/o3112)
For B10, the Kd in the data set with hMeCP2 MBD [2] (blunt) is 0.541 ± 0.0627 µM.
